In the test the target is T1, chicken Scap-3xFLAG (pEZT-cScap-3xFLAG WT) expressed in HEK 293T cells (Gallus gallus).
T1 chain: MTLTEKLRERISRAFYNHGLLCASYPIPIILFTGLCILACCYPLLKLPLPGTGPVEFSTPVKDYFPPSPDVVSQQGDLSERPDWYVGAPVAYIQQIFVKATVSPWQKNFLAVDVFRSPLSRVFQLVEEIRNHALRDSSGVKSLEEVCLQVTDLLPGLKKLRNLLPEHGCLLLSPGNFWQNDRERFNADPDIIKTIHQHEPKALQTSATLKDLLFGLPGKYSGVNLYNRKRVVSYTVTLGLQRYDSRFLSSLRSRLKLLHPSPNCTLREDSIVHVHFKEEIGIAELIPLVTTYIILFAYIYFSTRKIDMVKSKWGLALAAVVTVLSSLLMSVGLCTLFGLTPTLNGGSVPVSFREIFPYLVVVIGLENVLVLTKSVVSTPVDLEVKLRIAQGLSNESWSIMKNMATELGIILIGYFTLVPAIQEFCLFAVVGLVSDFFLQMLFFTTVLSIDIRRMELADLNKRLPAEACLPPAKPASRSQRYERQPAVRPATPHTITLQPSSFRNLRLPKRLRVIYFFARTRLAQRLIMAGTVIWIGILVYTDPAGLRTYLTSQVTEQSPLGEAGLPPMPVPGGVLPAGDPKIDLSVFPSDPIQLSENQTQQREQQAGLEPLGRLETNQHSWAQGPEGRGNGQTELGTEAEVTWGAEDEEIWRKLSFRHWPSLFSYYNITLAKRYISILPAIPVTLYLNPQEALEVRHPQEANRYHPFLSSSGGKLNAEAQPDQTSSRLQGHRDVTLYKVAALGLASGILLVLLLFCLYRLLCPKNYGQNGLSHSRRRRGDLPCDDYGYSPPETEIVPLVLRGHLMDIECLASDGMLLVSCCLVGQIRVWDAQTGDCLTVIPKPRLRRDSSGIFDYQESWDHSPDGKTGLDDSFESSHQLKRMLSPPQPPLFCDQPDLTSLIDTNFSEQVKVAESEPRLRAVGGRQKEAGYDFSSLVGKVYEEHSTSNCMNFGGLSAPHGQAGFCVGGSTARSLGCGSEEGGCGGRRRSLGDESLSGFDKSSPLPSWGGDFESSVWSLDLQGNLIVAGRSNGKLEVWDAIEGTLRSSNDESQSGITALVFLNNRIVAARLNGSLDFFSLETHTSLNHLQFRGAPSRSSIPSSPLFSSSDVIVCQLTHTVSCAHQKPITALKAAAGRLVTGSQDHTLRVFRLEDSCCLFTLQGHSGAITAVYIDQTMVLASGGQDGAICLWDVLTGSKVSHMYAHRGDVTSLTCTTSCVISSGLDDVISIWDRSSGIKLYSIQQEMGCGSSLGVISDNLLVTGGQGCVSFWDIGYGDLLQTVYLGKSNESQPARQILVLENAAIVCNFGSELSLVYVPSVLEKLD
In words: pull-down.

B1: Fab fragment derived from mouse monoclonal IgG 4G10 (Fab, V domains shown)
VH: EVQLQQSGAELVRPGASVKLSCTASGFKIKDDYIHWVKQRPEQGLEWIGRIDPANGHTRYAPKFQDKATITADTSSNTAYLQLSSLTSEDTAVYYCTRYNDYDAFYFDYWGQGTTLTVSS
VL: DIQMTQTTSSLSASLGDRVTISCRASQDIRNYLNWYQQKPDGTVKLLIYYTSRLHSGVPSRFSGSGSGTDYSLTISNLEQEDIATYFCQQTNTLPWTFGGGTKVEIK
In the case of B1, the binding result was “binds”.

The values are drawn from publication PMC8277531 (Cell, 2021).
